The labels stand for the following.
B1: sp¦O75915¦PRAF3_HUMAN (protein, UniProt O75915 1-188, looked up)
PRA1 family protein 3: MDVNIAPLRAWDDFFPGSDRFARPDFRDISKWNNRVVSNLLYYQTNYLVVAAMMISIVGFLSPFNMILGGIVVVLVFTGFVWAAHNKDVLRRMKKRYPTTFVMVVMLASYFLISMFGGVMVFVFGITFPLLLMFIHASLRLRNLKNKLENKMEGIGLKRTPMGIVLDALEQQEEGINRLTDYISKVKE
B2: sp¦Q9BXW7¦HDHD5_HUMAN (protein, UniProt Q9BXW7 24-423, looked up)
Haloacid dehalogenase-like …: AAGLQGRPARRCYAVGPAQSPPTFGFLLDIDGVLVRGHRVIPAALKAFRRLVNSQGQLRVPVVFVTNAGNILQHSKAQELSALLGCEVDADQVILSHSPMKLFSEYHEKRMLVSGQGPVMENAQGLGFRNVVTVDELRMAFPLLDMVDLERRLKTTPLPRNDFPRIEGVLLLGEPVRWETSLQLIMDVLLSNGSPGAGLATPPYPHLPVLASNMDLLWMAEAKMPRFGHGTFLLCLETIYQKVTGKELRYEGLMGKPSILTYQYAEDLIRRQAERRGWAAPIRKLYAVGDNPMSDVYGANLFHQYLQKATHDGAPELGAGGTRQQQPSASQSCISILVCTGVYNPRNPQSTEPVLGGGEPPFHGHRDLCFSPGLMEASHVVNDVNEAVQLVFRKEGWALE
B3: sp¦Q92878¦RAD50_HUMAN (protein, UniProt Q92878 1-1312, looked up)
DNA repair protein RAD50: MSRIEKMSILGVRSFGIEDKDKQIITFFSPLTILVGPNGAGKTTIIECLKYICTGDFPPGTKGNTFVHDPKVAQETDVRAQIRLQFRDVNGELIAVQRSMVCTQKSKKTEFKTLEGVITRTKHGEKVSLSSKCAEIDREMISSLGVSKAVLNNVIFCHQEDSNWPLSEGKALKQKFDEIFSATRYIKALETLRQVRQTQGQKVKEYQMELKYLKQYKEKACEIRDQITSKEAQLTSSKEIVKSYENELDPLKNRLKEIEHNLSKIMKLDNEIKALDSRKKQMEKDNSELEEKMEKVFQGTDEQLNDLYHNHQRTVREKERKLVDCHRELEKLNKESRLLNQEKSELLVEQGRLQLQADRHQEHIRARDSLIQSLATQLELDGFERGPFSERQIKNFHKLVRERQEGEAKTANQLMNDFAEKETLKQKQIDEIRDKKTGLGRIIELKSEILSKKQNELKNVKYELQQLEGSSDRILELDQELIKAERELSKAEKNSNVETLKMEVISLQNEKADLDRTLRKLDQEMEQLNHHTTTRTQMEMLTKDKADKDEQIRKIKSRHSDELTSLLGYFPNKKQLEDWLHSKSKEINQTRDRLAKLNKELASSEQNKNHINNELKRKEEQLSSYEDKLFDVCGSQDFESDLDRLKEEIEKSSKQRAMLAGATAVYSQFITQLTDENQSCCPVCQRVFQTEAELQEVISDLQSKLRLAPDKLKSTESELKKKEKRRDEMLGLVPMRQSIIDLKEKEIPELRNKLQNVNRDIQRLKNDIEEQETLLGTIMPEEESAKVCLTDVTIMERFQMELKDVERKIAQQAAKLQGIDLDRTVQQVNQEKQEKQHKLDTVSSKIELNRKLIQDQQEQIQHLKSTTNELKSEKLQISTNLQRRQQLEEQTVELSTEVQSLYREIKDAKEQVSPLETTLEKFQQEKEELINKKNTSNKIAQDKLNDIKEKVKNIHGYMKDIENYIQDGKDDYKKQKETELNKVIAQLSECEKHKEKINEDMRLMRQDIDTQKIQERWLQDNLTLRKRNEELKEVEEERKQHLKEMGQMQVLQMKSEHQKLEENIDNIKRNHNLALGRQKGYEEEIIHFKKELREPQFRDAEEKYREMMIVMRTTELVNKDLDIYYKTLDQAIMKFHSMKMEEINKIIRDLWRSTYRGQDIEYIEIRSDADENVSASDKRRNYNYRVVMLKGDTALDMRGRCSAGQKVLASLIIRLALAETFCLNCGIIALDEPTTNLDRENIESLAHALVEIIKSRSQQRNFQLLVITHDEDFVELLGRSEYVEKFYRIKKNIDQCSEIVKCSVSSLGFNVH
B4: RRRRRsp¦Q5VW38¦GP107_HUMAN (protein, UniProt Q5VW38 40-600, looked up)
Protein GPR107: RVHHLALKDDVRHKVHLNTFGFFKDGYMVVNVSSLSLNEPEDKDVTIGFSLDRTKNDGFSSYLDEDVNYCILKKQSVSVTLLILDISRSEVRVKSPPEAGTQLPKIIFSRDEKVLGQSQEPNVNPASAGNQTQKTQDGGKSKRSTVDSKAMGEKSFSVHNNGGAVSFQFFFNISTDDQEGLYSLYFHKCLGKELPSDKFTFSLDIEITEKNPDSYLSAGEIPLPKLYISMAFFFFLSGTIWIHILRKRRNDVFKIHWLMAALPFTKSLSLVFHAIDYHYISSQGFPIEGWAVVYYITHLLKGALLFITIALIGTGWAFIKHILSDKDKKIFMIVIPLQVLANVAYIIIESTEEGTTEYGLWKDSLFLVDLLCCGAILFPVVWSIRHLQEASATDGKGDSMGPLQQRANLRAGSRIESHHFAQADLELLASSCPPASVSQRAGITAAINLAKLKLFRHYYVLIVCYIYFTRIIAFLLKLAVPFQWKWLYQLLDETATLVFFVLTGYKFRPASDNPYLQLSQEEEDLEMESVVTTSGVMESMKKVKKVTNGSVEPQGEWEGAV
B5: sp¦O43719¦HTSF1_HUMAN (protein, UniProt O43719 2-755, looked up)
17S U2 SnRNP complex …: SGTNLDGNDEFDEQLRMQELYGDGKDGDTQTDAGGEPDSLGQQPTDTPYEWDLDKKAWFPKITEDFIATYQANYGFSNDGASSSTANVEDVHARTAEEPPQEKAPEPTDARKKGEKRKAESGWFHVEEDRNTNVYVSGLPPDITVDEFIQLMSKFGIIMRDPQTEEFKVKLYKDNQGNLKGDGLCCYLKRESVELALKLLDEDEIRGYKLHVEVAKFQLKGEYDASKKKKKCKDYKKKLSMQQKQLDWRPERRAGPSRMRHERVVIIKNMFHPMDFEDDPLVLNEIREDLRVECSKFGQIRKLLLFDRHPDGVASVSFRDPEEADYCIQTLDGRWFGGRQITAQAWDGTTDYQVEETSREREERLRGWEAFLNAPEANRGLRRSDSVSASERAGPSRARHFSEHPSTSKMNAQETATGMAFEEPIDEKKFEKTEDGGEFEEGASENNAKESSPEKEAEEGCPEKESEEGCPKRGFEGSCSQKESEEGNPVRGSEEDSPKKESKKKTLKNDCEENGLAKESEDDLNKESEEEVGPTKESEEDDSEKESDEDCSEKQSEDGSEREFEENGLEKDLDEEGSEKELHENVLDKELEENDSENSEFEDDGSEKVLDEEGSEREFDEDSDEKEEEEDTYEKVFDDESDEKEDEEYADEKGLEAADKKAEEGDADEKLFEESDDKEDEDADGKEVEDADEKLFEDDDSNEKLFDEEEDSSEKLFDDSDERGTLGGFGSVEEGPLSTGSSFILSSDDDDDDI
B6: sp¦Q9BX68¦HINT2_HUMAN (protein, UniProt Q9BX68 18-163, looked up)
Adenosine …: VAATGVRGGQVRGAAGVTDGNEVAKAQQATPGGAAPTIFSRILDKSLPADILYEDQQCLVFRDVAPQAPVHFLVIPKKPIPRISQAEEEDQQLLGHLLLVAKQTAKAEGLGDGYRLVINDGKLGAQSVYHLHIHVLGGRQLQWPPG
B7: sp¦Q99442¦SEC62_HUMAN (protein, UniProt Q99442 1-399, looked up)
Translocation protein SEC62: MAERRRHKKRIQEVGEPSKEEKAVAKYLRFNCPTKSTNMMGHRVDYFIASKAVDCLLDSKWAKAKKGEEALFTTRESVVDYCNRLLKKQFFHRALKVMKMKYDKDIKKEKDKGKAESGKEEDKKSKKENIKDEKTKKEKEKKKDGEKEESKKEETPGTPKKKETKKKFKLEPHDDQVFLDGNEVYVWIYDPVHFKTFVMGLILVIAVIAATLFPLWPAEMRVGVYYLSVGAGCFVASILLLAVARCILFLIIWLITGGRHHFWFLPNLTADVGFIDSFRPLYTHEYKGPKADLKKDEKSETKKQQKSDSEEKSDSEKKEDEEGKVGPGNHGTEGSGGERHSDTDSDRREDDRSQHSSGNGNDFEMITKEELEQQTDGDCEEDEEEENDGETPKSSHEKS
B8: sp¦Q9UQE7¦SMC3_HUMAN (protein, UniProt Q9UQE7 1-1217, looked up)
Structural maintenance of …: MYIKQVIIQGFRSYRDQTIVDPFSSKHNVIVGRNGSGKSNFFYAIQFVLSDEFSHLRPEQRLALLHEGTGPRVISAFVEIIFDNSDNRLPIDKEEVSLRRVIGAKKDQYFLDKKMVTKNDVMNLLESAGFSRSNPYYIVKQGKINQMATAPDSQRLKLLREVAGTRVYDERKEESISLMKETEGKREKINELLKYIEERLHTLEEEKEELAQYQKWDKMRRALEYTIYNQELNETRAKLDELSAKRETSGEKSRQLRDAQQDARDKMEDIERQVRELKTKISAMKEEKEQLSAERQEQIKQRTKLELKAKDLQDELAGNSEQRKRLLKERQKLLEKIEEKQKELAETEPKFNSVKEKEERGIARLAQATQERTDLYAKQGRGSQFTSKEERDKWIKKELKSLDQAINDKKRQIAAIHKDLEDTEANKEKNLEQYNKLDQDLNEVKARVEELDRKYYEVKNKKDELQSERNYLWREENAEQQALAAKREDLEKKQQLLRAATGKAILNGIDSINKVLDHFRRKGINQHVQNGYHGIVMNNFECEPAFYTCVEVTAGNRLFYHIVDSDEVSTKILMEFNKMNLPGEVTFLPLNKLDVRDTAYPETNDAIPMISKLRYNPRFDKAFKHVFGKTLICRSMEVSTQLARAFTMDCITLEGDQVSHRGALTGGYYDTRKSRLELQKDVRKAEEELGELEAKLNENLRRNIERINNEIDQLMNQMQQIETQQRKFKASRDSILSEMKMLKEKRQQSEKTFMPKQRSLQSLEASLHAMESTRESLKAELGTDLLSQLSLEDQKRVDALNDEIRQLQQENRQLLNERIKLEGIITRVETYLNENLRKRLDQVEQELNELRETEGGTVLTATTSELEAINKRVKDTMARSEDLDNSIDKTEAGIKELQKSMERWKNMEKEHMDAINHDTKELEKMTNRQGMLLKKKEECMKKIRELGSLPQEAFEKYQTLSLKQLFRKLEQCNTELKKYSHVNKKALDQFVNFSEQKEKLIKRQEELDRGYKSIMELMNVLELRKYEAIQLTFKQVSKNFSEVFQKLVPGGKATLVMKKGDVEGSQSQDEGEGSGESERGSGSQSSVPSVDQFTGVGIRVSFTGKQGEMREMQQLSGGQKSLVALALIFAIQKCDPAPFYLFDEIDQALDAQHRKAVSDMIMELAVHAQFITTTFRPELLESADKFYGVKFRNKVSHIDVITAEMAKDFVEDDTTHG
B9: sp¦Q8WZA0¦LZIC_HUMAN (protein, UniProt Q8WZA0 1-190, looked up)
Protein LZIC: MASRGKTETSKLKQNLEEQLDRLMQQLQDLEECREELDTDEYEETKKETLEQLSEFNDSLKKIMSGNMTLVDELSGMQLAIQAAISQAFKTPEVIRLFAKKQPGQLRTRLAEMDRDLMVGKLERDLYTQQKVEILTALRKLGEKLTADDEAFLSANAGAILSQFEKVSTDLGSGDKILALASFEVEKTKK

The subject of the first assay is human HL60 cells. In words: SWATH-MS proteomics, differential protein representation, akirin2 KO vs WT HL60 cells. In kind it is cell-based. The note with it: KO vs WT HL60 cells; sheet "Under-represented in KO". The procedure, abridged: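 Differential representation compares akirin2 KO with WT HL60 across three biological replicates, 5 µg digest each, acquired by data-independent SWATH on a 120-min gradient. Library built from combined IDA runs searched with Paragon; proteins accepted at 1% FDR, with total-area-sum normalization.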
As for B1, the “Fold Change” value is 0.4503 and the “Log (Fold Change)” value was -0.3465.
In the case of B2, the “Fold Change” value is reported as 0.4469 and the “Log (Fold Change)” value is reported as -0.3498.
As for B3, the “Fold Change” value came to 0.4495 and the “Log (Fold Change)” value is -0.3473.

The same assay, now with this note: akirin2 KO vs WT HL60 cells; sheet "Under-represented in KO".
Consider B4, for which the “Fold Change” value stood at 0.4419 and the “Log (Fold Change)” value was -0.3547.
As for B5, the “Fold Change” value is 0.1732 and the “Log (Fold Change)” value is recorded as -0.7615.
For the molecule B6, the “Fold Change” value worked out at 0.4303 and the “Log (Fold Change)” value is listed as -0.3662.
For the molecule B7, the “Fold Change” value was determined as 0.4401 and the “Log (Fold Change)” value is listed as -0.3564.
In the case of B8, the “Fold Change” value was 0.4375 and the “Log (Fold Change)” value is reported as -0.359.
For the molecule B9, the “Fold Change” value worked out at 0.433 and the “Log (Fold Change)” value is recorded as -0.3635.

The record behind these values is PMC8298264, “Function of cofactor Akirin2 in the regulation of gene expression in model human neutrophil-like HL60 cells” (Bioscience Reports, 2021).
